Consider two molecules from US20110052597A1 (CSL, published 2011).

The target in test [1] is T1, N-terminal FLAG-tagged fusion protein including most of the extracellular region of human IL-13Rα1 (human, UniProt P78552 29-343).
T1 construct: also called hIL-13Rα1.ECR; Human IL-13Rα1.ECR
T1 sequence: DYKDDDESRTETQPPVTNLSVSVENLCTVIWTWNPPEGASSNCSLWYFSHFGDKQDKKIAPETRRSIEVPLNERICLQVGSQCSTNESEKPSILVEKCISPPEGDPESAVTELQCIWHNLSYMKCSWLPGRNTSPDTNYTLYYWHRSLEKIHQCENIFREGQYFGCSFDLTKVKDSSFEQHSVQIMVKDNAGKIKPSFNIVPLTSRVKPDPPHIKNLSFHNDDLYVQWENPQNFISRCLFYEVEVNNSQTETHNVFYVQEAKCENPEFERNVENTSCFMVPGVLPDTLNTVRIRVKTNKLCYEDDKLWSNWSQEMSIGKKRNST
The experiment in a line: BIACORE, hIL-13Rα1.ECR immobilized on CM5 chip, mAb in solution, bivalent model. For orientation: In SPR one partner is held on a chip, and binding of the other changes the refractive index at the surface.
From the text: BIACORE™-Based Studies. […] Ethanolamine (1.0 M), pH 8.0 was used to quench residual active esters post hIL-13Rα1.ECR immobilization.
Sensorgrams generated were fitted to a bivalent ligand binding model to simultaneously derive association (kₐ) and dissociation (kd) rates and used to determine binding affinity (KD, Biaevaluation software, BIACORE™, Sweden).

Test [2] concerns the target T2, cynomolgus IL-13Rα1.ECR, N-terminal FLAG-tagged fusion protein (cynomolgus macaque, UniProt P78552 27-343 (human entry)).
T2 construct: also called cyIL-13Rα1; Cynomolgus IL13Rα.ECR; not shown: N-terminal FLAG tag from the pEFBOS-S-FLAG vector
T2 chain: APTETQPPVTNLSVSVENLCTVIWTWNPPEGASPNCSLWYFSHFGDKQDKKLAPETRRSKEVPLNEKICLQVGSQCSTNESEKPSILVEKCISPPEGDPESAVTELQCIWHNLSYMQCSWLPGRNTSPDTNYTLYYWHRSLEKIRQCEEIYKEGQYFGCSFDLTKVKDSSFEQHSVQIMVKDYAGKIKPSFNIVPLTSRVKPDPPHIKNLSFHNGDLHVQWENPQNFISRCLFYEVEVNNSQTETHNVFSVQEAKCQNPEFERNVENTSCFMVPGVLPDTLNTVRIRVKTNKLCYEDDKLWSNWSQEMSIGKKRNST
The experiment in a line: BIACORE, receptor ECR immobilized on CM5 chip, mAb in solution.

In test [3] the target is T1, N-terminal FLAG-tagged fusion protein …. The test is described as above.

B1: human monoclonal antibody 15F4 (antibody, V domains shown)
VH: QVQLVESGGGVVQPGRSLRLSCAASGFTFSSYGMHWVRQAPGKGLEWVAVIWDDGSNKYYEVSVKGRFTISRDNSKNTLYLQMNSLRVEDTAVYYCARDSNNWYVGVFDIWGQGTMVTVSS
VL: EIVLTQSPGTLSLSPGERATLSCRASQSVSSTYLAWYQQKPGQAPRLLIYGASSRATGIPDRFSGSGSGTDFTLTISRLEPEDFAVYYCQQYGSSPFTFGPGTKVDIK
notes: also called mAb 15F4; hybridoma ATCC PTA-6935
B1: the Kd in test [1] was about 2.17 nM.

B2: monoclonal antibody 8B4 (antibody, V domains shown)
VH: EVQVLESGGGLVQPGGSLRLSCAASGFTFSNYAMTWVRQAPGKGLEWVSTISGRGYSIYYADSVKGRFTISRDNSKNTVYLQMNSLRAEDTAVYYCAKEEGHWYFDVWGRGTLVTVSS
VL: EIVLTQSPDFQSVTPKEKVTITCRASQSIGSSLHWYQQKPDQSPKLLIKYASQSFSGVPSRFSGSGSGTDFTLTINSLEAEDAAAYYCHQSSSLPYTFGQGTKLEIK
Regarding B2, the Kd in test [2] amounted to 0.59 nM; in test [3], 4.6 nM.
